Measurements from patent US20200131227A1, “POLYPEPTIDE WITH TUMOUR BINDING ACTIVITY” (RUPRECHT-KARLS-UNIVERSITÄT HEIDELBERG, priority 2017, published 2020).
Where a SMILES comes first, the peptide text is derived from it. Bridges are numbered along the chain shown (N, C = ends). The star is where a group is joined. DOTA = O=C(O)CN1CCN(CC(=O)O)CCN(CC(=O)*)CCN(CC(=O)O)CC1

Tests used:
in vivo = settings: Balb/c nude, mouse, iv, total radioactivity
Method: (§1) All experiments were conducted in compliance with the German animal protection laws. Eight week old Balb c/c nude mice (Charles River Laboratories) were inoculated subcutaneously at the right shoulder with 5×10^6 HNO97 cells in BD MatriGel™ (BD Bioscience). Xenografts were grown to a tumor diameter of 10-15 mm. For small animal-PET imaging mice were anesthetized using isoflurane inhalation and injected via tail-vein with 50 MBq (2 nmol) of the ^68Ga-labeled DOTA-SFITGv6 peptide (see above) solution in 100 μL PBS. Images were recorded on an Inveon small-animal PET scanner (Siemens) using a 60 min emission scan in list mode and a 10 min transmission scan. Images were taken in 3-dimensional (3D) mode and reconstructed iteratively with a fully 3D algorithm from a 256×256 matrix for viewing transaxial, coronal, and sagittal slices of 0.9 mm thickness. Pixel size was 0.38×0.38×0.79 mm3 and transaxial resolution obtained was 0.9 mm. For blocking experiments 100 μL of a 1 mM aqueous solution of SFITGv6 was pre-administered intraperitoneally 30 min before injection of the radiolabeled peptide. Biodistribution studies were performed after administration of 100 μL of a 20 nM ^177Lu-DOTA-SFITGv6 solution (1 MBq) as an intravenous bolus injection into the tail vein of the mice. After different time points (30 min to 6 hours) three animals, respectively, were sacrificed. Peripheral blood, heart, lung, spleen, liver, kidneys, muscle, brain, intestine, and injection site (tail, after intravenous injection only) were collected and weighted. Tissue-associated radioactivity was measured in a gamma counter (Berthold LB951G) and expressed as percentage of the injected dose per gram tissue (% ID/g).
(§2) All animal experiments were conducted in compliance with the German animal protection laws. For in vivo small animal PET imaging and organ distribution studies eight-week old Balb/c nude mice (Charles River Laboratories) were inoculated subcutaneously at the right shoulder with a total of 5×10^6 tumor cells in MatriGel (BD Bioscience). Xenografts were grown until a tumor diameter of 10-15 mm was reached.
(§3) 3-dimensional (3D) PET images of whole mice were captured by the Siemens Inveon PET scanner as described in Example 1. To assess the biodistribution 100 μL of a 20 nM solution (1 MBq) of ^177Lu-DOTA-SFLAP3 and ^177Lu-DOTA-SFITGv6 were administered as an intravenous bolus injection into the tail vein of mice. For each time point (30 min to 6 hours) we sacrificed a total of three animals, and subsequently collected peripheral blood, heart, lung, spleen, liver, kidneys, muscle, brain, and intestine. Tissues were weighed and respective radioactivity was measured by a gamma counter (LB951G, Berthold Technologies). Values were expressed as percentage of the injected dose radioactivity (MBq) per gram tissue (% ID/g).

HNO97 xenografts = test: in vivo; settings: mouse
Method: as §1, §2, §3

[1] = Small-animal PET imaging, HNO399 xenografts; parameters: species or system mice; settings: Balb/c nude, mouse, in vivo, iv, total radioactivity
[2] = Small-animal PET imaging, HNO223 xenografts; parameters: species or system mice; settings: Balb/c nude, mouse, in vivo, iv, total radioactivity
NSCLC = settings: human, in vivo
Method: (§4) The PET/CT scan was performed 1 and 3 hours post tracer administration with a Biograph mCT Flow™ PET/CT-Scanner (Siemens Medical Solution) using the following parameters: slice thickness of 5 mm, increment of 3-4 mm, soft-tissue reconstruction kernel, care dose Immediately after CT scanning, a whole-body PET was acquired in 3D (matrix 200×200) in FlowMotion™ with 0.7 cm/min. The emission data were corrected for random, scatter and decay. Reconstruction was conducted with an ordered subset expectation maximisation (OSEM) algorithm with 2 iterations/21 subsets and Gauss-filtered to a transaxial resolution of 5 mm at full-width half-maximum (FWHM). Attenuation correction was performed using the low-dose non-enhanced CT data. The quantitative assessment of standardized uptake values (SUV) was done using a region of interest technique.

[3] = tested on: recurrent hypopharynx carcinoma; settings: human, in vivo
Method: as §4

CSCC[C@@H]1NC(=O)[C@H](CC(C)C)NC(=O)[C@H](CC(=O)O)NC(=O)CNC(=O)[C@H](CCCNC(=N)N)NC(=O)[C@H](Cc2ccccc2)NC(=O)[C@H]([C@@H](C)O)NC(=O)[C@@H](NC(=O)[C@H](CCCNC(=N)N)NC(=O)CNC(=O)CN2CCN(CC(=O)O)CCN(CC(=O)O)CCN(CC(=O)O)CC2)CSSC[C@@H](C(=O)N[C@@H](Cc2ccc(O)cc2)C(=O)N2CCC[C@H]2C(=O)N[C@@H](CC(=O)O)C(=O)O)NC(=O)[C@H](CC(C)C)NC(=O)[C@H](CCC(N)=O)NC1=O [^68Ga-DOTA-SFITGv6, metal not drawn] ({DOTA}-GRCTFRGDLMQLCYPD-OH; disulfide 3-13)
SUV at 1 h (in vivo): 0.68 SUV | time after injection until radioactivity accumulated in the tumor (HNO97 xenografts): ≤ 20 min | time for which tumor accumulation was maintained (HNO97 xenografts): at least 140 min | time of clearance of non-specific activity from the blood (HNO97 xenografts): ≤ 60 min | SUV at 1 h [1]: 0.33 SUV | SUV at 1 h [2]: 0.23 SUV | SUVmax Shoulder (NSCLC): 1.50 | SUVmax Elbow [3]: 1.70 | SUVmax Gallbladder [3]: 1.90 | SUVmax Hilar [3]: 1.00
